Measured values reported in PMC4736438, “Cation–π Interactions Contribute to Substrate Recognition in γ‐Butyrobetaine Hydroxylase Catalysis” (Chemistry (Weinheim an Der Bergstrasse, Germany), 2015).

Legend:
psBBOX = target: T1, psBBOX (Pseudomonas sp. AK-1, UniProt P80193); experiment: 1H NMR (CPMG) protein titration; assay type: binding
T1 construct: recombinant, purified on HisTrap and Superdex S200; metal-free buffer
T1 sequence (P80193 1-383): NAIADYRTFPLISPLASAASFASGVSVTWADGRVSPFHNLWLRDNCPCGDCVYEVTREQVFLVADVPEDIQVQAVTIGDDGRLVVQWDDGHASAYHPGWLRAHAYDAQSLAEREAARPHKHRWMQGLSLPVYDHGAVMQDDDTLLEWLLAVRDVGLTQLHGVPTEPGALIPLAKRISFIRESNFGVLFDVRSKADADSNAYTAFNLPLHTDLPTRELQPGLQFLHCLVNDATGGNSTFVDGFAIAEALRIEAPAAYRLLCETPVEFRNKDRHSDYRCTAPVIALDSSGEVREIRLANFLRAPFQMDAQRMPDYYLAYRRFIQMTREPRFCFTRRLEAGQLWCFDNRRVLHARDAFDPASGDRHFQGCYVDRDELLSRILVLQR

[1] = substrate: C[N+](C)(C)CCCC(=O)[O-]; experiment: LC-MS hydroxylation kinetics; assay type: biochemical, Pseudomonas sp. AK-1; details: […] psBBOX, […] FeSO4, […] 2OG, […] ascorbate, Tris pH […] K
Description: LC-MS hydroxylation kinetics on psBBOX

Row | Molecule | Kd (psBBOX) | Km [1] | Vmax [1] | kcat [1]
1 | C[N+](C)(C)CCCC(=O)[O-] [compound 1, γBB] | 5 µM |  |  | 
2 | psBBOX (Pseudomonas sp. AK-1) (protein, recombinant, purified on HisTrap and Superdex S200; metal-free buffer) NAIADYRTFPLISPLASAASFASGVSVTWADGRVSPFHNLWLRDNCPCGDCVYEVTREQVFLVADVPEDIQVQAVTIGDDGRLVVQWDDGHASAYHPGWLRAHAYDAQSLAEREAARPHKHRWMQGLSLPVYDHGAVMQDDDTLLEWLLAVRDVGLTQLHGVPTEPGALIPLAKRISFIRESNFGVLFDVRSKADADSNAYTAFNLPLHTDLPTRELQPGLQFLHCLVNDATGGNSTFVDGFAIAEALRIEAPAAYRLLCETPVEFRNKDRHSDYRCTAPVIALDSSGEVREIRLANFLRAPFQMDAQRMPDYYLAYRRFIQMTREPRFCFTRRLEAGQLWCFDNRRVLHARDAFDPASGDRHFQGCYVDRDELLSRILVLQR |  | 1.00 ± 0.21 mM | 169 µM/min | 7.02 ± 0.77 s⁻¹
